According to patent publication US8580556B2, “Sulfonylurea-responsive repressor proteins” (E. I. du Pont de Nemours and Company, priority 2008, dated 2013):
Positions count from the first letter of the chain named.

B1: L6-5H06 (protein)
chain: MGSRLDKSKVINSALELLNEVGIEGLTTRKLAQKLGVEQPTLYWHVKNKRALLDALAIEMMDRHQTHICPLEGESWQDFLRNNAKSMRCALLSHRDGAKVCLGTRWTEKQYETAENMLAFLCQQGFSLENALYAVSAVRVFTLGCVLFDQELQVAKEERETPTTASMPPLVRQAWELKDHQGAEPAFLFGLELIICGLEKQLKCESGS
modifications: Sulfonylurea responsive repressor L6-5H06
B2: L6-6F07 (protein)
chain: B1 chain with Q65A, I68L, N83T, K109Q, T113S, V135M, L152S, V171L
modifications: Sulfonylurea responsive repressor L6-6F07
B3: L6-5H12 (protein)
chain: B1 chain with Q65A, I68Y, M117Q, V135M
modifications: Sulfonylurea responsive repressor L6-5H12

Tested on: tetA promoter (PtetA)-lacZ reporter in E. coli KM3
Type: cell-based
Details: for Control 84 hr (colony color intensity, background activity without inducer): M9 assay plates, no inducer, 84 hr at 30° C., colony color intensity by ImageJ

Molecule | 0.2 ppm 48 hr/Control 84 hr | Control 84 hr (colony color intensity, background activity without inducer)
B1 | 2.7 | 5.1
B2 | 2.3 | 5.1
B3 | 4.2 | 5.7
